Measurements reported in US20220098307A1 (WUHAN YZY BIOPHARMA, published 2022).
Positions count from the first letter of the chain named. Numbers in names are those of the source.

T1: Human BCMA (human, UniProt Q02223 1-54)
T1 sequence: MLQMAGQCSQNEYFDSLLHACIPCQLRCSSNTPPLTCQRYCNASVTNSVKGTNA

B1: M2IC-WT (bispecific antibody, human IgG1, kappa)
chain: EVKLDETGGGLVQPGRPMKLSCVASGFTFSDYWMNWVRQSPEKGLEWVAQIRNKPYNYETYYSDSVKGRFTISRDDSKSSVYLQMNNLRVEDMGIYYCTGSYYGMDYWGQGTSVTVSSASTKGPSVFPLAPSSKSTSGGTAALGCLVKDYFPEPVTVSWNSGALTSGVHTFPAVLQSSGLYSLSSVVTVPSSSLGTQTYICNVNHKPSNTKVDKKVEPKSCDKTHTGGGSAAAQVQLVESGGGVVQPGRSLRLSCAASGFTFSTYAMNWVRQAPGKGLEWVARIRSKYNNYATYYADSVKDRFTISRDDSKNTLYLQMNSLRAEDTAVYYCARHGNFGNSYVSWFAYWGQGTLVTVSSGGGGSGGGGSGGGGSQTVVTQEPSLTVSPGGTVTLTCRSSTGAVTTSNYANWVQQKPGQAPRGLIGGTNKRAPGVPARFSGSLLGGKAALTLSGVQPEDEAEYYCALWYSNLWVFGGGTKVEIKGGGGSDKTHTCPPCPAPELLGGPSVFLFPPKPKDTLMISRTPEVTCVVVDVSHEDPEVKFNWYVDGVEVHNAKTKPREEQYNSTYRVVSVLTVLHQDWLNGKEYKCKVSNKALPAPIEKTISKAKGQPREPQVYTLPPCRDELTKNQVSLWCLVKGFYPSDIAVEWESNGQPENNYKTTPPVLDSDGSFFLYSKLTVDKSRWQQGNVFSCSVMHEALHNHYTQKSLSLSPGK
heavy: EVKLDETGGGLVQPGRPMKLSCVASGFTFSDYWMNWVRQSPEKGLEWVAQIRNKPYNYETYYSDSVKGRFTISRDDSKSSVYLQMNNLRVEDMGIYYCTGSYYGMDYWGQGTSVTVSSASTKGPSVFPLAPSSKSTSGGTAALGCLVKDYFPEPVTVSWNSGALTSGVHTFPAVLQSSGLYSLSSVVTVPSSSLGTQTYICNVNHKPSNTKVDKKVEPKSCDKTHTCPPCPAPELLGGPSVFLFPPKPKDTLMISRTPEVTCVVVDVSHEDPEVKFNWYVDGVEVHNAKTKPREEQYNSTYRVVSVLTVLHQDWLNGKEYKCKVSNKALPAPIEKTISKAKGQPREPQVCTLPPSRDELTKNQVSLSCAVKGFYPSDIAVEWESNGQPENNYKTTPPVLDSDGSFFLVSKLTVDKSRWQQGNVFSCSVMHEALHNRFTQKSLSLSPGK
light: DVVMTQTPLSLPVSLGDQASISCRSSQSLVHSNGNTYLRWYLQKPGQSPKVLIYKVSNRFSGVPDRFSGSGSGTDFTLKISRVEAEDLGVYFCSQSTHVPWTFGGGTKLEIKRTVAAPSVFIFPPSDEQLKSGTASVVCLLNNFYPREAKVQWKVDNALQSGNSQESVTEQDSKDSTYSLSSTLTLSKADYEKHKVYACEVTHQGLSSPVTKSFNRGEC
notes: structure 2 isotype control; CH2 WT
B2: M2IC-G2 (bispecific antibody, human IgG1, kappa)
chain: EVKLDETGGGLVQPGRPMKLSCVASGFTFSDYWMNWVRQSPEKGLEWVAQIRNKPYNYETYYSDSVKGRFTISRDDSKSSVYLQMNNLRVEDMGIYYCTGSYYGMDYWGQGTSVTVSSASTKGPSVFPLAPSSKSTSGGTAALGCLVKDYFPEPVTVSWNSGALTSGVHTFPAVLQSSGLYSLSSVVTVPSSSLGTQTYICNVNHKPSNTKVDKKVEPKSCDKTHTGGGSAAAQVQLVESGGGVVQPGRSLRLSCAASGFTFSTYAMNWVRQAPGKGLEWVARIRSKYNNYATYYADSVKDRFTISRDDSKNTLYLQMNSLRAEDTAVYYCARHGNFGNSYVSWFAYWGQGTLVTVSSGGGGSGGGGSGGGGSQTVVTQEPSLTVSPGGTVTLTCRSSTGAVTTSNYANWVQQKPGQAPRGLIGGTNKRAPGVPARFSGSLLGGKAALTLSGVQPEDEAEYYCALWYSNLWVFGGGTKVEIKGGGGSDKTHTCPPCPAPPVAGPSVFLFPPKPKDTLMISRTPEVTCVVVDVSHEDPEVQFNWYVDGVEVHNAKTKPREEQFNSTFRVVSVLTVVHQDWLNGKEYKCKVSNKGLPAPIEKTISKTKGQPREPQVYTLPPCRDELTKNQVSLWCLVKGFYPSDIAVEWESNGQPENNYKTTPPVLDSDGSFFLYSKLTVDKSRWQQGNVFSCSVMHEALHNHYTQKSLSLSPGK
heavy: EVKLDETGGGLVQPGRPMKLSCVASGFTFSDYWMNWVRQSPEKGLEWVAQIRNKPYNYETYYSDSVKGRFTISRDDSKSSVYLQMNNLRVEDMGIYYCTGSYYGMDYWGQGTSVTVSSASTKGPSVFPLAPSSKSTSGGTAALGCLVKDYFPEPVTVSWNSGALTSGVHTFPAVLQSSGLYSLSSVVTVPSSSLGTQTYICNVNHKPSNTKVDKKVEPKSCDKTHTCPPCPAPPVAGPSVFLFPPKPKDTLMISRTPEVTCVVVDVSHEDPEVQFNWYVDGVEVHNAKTKPREEQFNSTFRVVSVLTVVHQDWLNGKEYKCKVSNKGLPAPIEKTISKTKGQPREPQVCTLPPSRDELTKNQVSLSCAVKGFYPSDIAVEWESNGQPENNYKTTPPVLDSDGSFFLVSKLTVDKSRWQQGNVFSCSVMHEALHNRFTQKSLSLSPGK
light: B1 light
notes: structure 2 isotype control; CH2 G2CH2
B3: M2IC-PG2 (bispecific antibody, human IgG1, kappa)
chain: B2 chain with C496P
heavy: B2 heavy with C230P
light: B1 light
notes: structure 2 isotype control; CH2 PG2CH2
B4: M2IC-FES (bispecific antibody, human IgG1, kappa)
chain: EVKLDETGGGLVQPGRPMKLSCVASGFTFSDYWMNWVRQSPEKGLEWVAQIRNKPYNYETYYSDSVKGRFTISRDDSKSSVYLQMNNLRVEDMGIYYCTGSYYGMDYWGQGTSVTVSSASTKGPSVFPLAPSSKSTSGGTAALGCLVKDYFPEPVTVSWNSGALTSGVHTFPAVLQSSGLYSLSSVVTVPSSSLGTQTYICNVNHKPSNTKVDKKVEPKSCDKTHTGGGSAAAQVQLVESGGGVVQPGRSLRLSCAASGFTFSTYAMNWVRQAPGKGLEWVARIRSKYNNYATYYADSVKDRFTISRDDSKNTLYLQMNSLRAEDTAVYYCARHGNFGNSYVSWFAYWGQGTLVTVSSGGGGSGGGGSGGGGSQTVVTQEPSLTVSPGGTVTLTCRSSTGAVTTSNYANWVQQKPGQAPRGLIGGTNKRAPGVPARFSGSLLGGKAALTLSGVQPEDEAEYYCALWYSNLWVFGGGTKVEIKGGGGSDKTHTCPPCPAPEFEGGPSVFLFPPKPKDTLMISRTPEVTCVVVDVSHEDPEVKFNWYVDGVEVHNAKTKPREEQYNSTYRVVSVLTVLHQDWLNGKEYKCKVSNKALPASIEKTISKAKGQPREPQVYTLPPCRDELTKNQVSLWCLVKGFYPSDIAVEWESNGQPENNYKTTPPVLDSDGSFFLYSKLTVDKSRWQQGNVFSCSVMHEALHNHYTQKSLSLSPGK
heavy: B1 heavy with L235F, L236E, P332S
light: B1 light
notes: structure 2 isotype control; CH2 FES
B5: M2IC-G2D (bispecific antibody, human IgG1, kappa)
chain: B2 chain with D536A
heavy: B2 heavy with D270A
light: B1 light
notes: structure 2 isotype control; CH2 G2DCH2
B6: M2IC-DG2 (bispecific antibody, human IgG1, kappa)
chain: B2 chain with D531A
heavy: B2 heavy with D265A
light: B1 light
notes: structure 2 isotype control; CH2 DG2CH2
B7: M2IC-AAG (bispecific antibody, human IgG1, kappa, L234A L235A)
chain: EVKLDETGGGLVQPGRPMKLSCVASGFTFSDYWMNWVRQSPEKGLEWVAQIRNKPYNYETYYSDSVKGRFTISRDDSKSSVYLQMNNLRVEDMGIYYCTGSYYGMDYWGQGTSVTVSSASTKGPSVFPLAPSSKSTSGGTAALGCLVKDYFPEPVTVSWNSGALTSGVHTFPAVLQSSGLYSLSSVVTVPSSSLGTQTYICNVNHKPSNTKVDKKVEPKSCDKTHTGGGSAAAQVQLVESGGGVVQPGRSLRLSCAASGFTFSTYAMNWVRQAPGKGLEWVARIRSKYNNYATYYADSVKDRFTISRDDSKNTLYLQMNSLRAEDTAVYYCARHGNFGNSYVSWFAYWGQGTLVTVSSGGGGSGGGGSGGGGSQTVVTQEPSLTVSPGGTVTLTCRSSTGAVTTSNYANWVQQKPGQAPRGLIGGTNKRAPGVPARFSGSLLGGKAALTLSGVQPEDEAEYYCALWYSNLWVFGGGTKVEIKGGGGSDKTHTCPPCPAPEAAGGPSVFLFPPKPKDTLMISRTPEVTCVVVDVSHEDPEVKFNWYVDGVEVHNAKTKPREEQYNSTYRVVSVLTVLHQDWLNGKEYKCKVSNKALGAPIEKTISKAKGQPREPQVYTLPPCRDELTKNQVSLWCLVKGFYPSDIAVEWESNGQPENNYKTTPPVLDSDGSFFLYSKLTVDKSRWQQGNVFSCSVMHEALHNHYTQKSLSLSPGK
heavy: B1 heavy with L235A, L236A, P330G
light: B1 light
notes: structure 2 isotype control; CH2 AAG
B8: M2IC-AG2 (bispecific antibody, human IgG1, kappa)
chain: B2 chain with C496A
heavy: B2 heavy with C230A
light: B1 light
notes: structure 2 isotype control; CH2 AG2CH2
B9: M2IC-DG2D (bispecific antibody, human IgG1, kappa)
chain: B2 chain with D531A, D536A
heavy: B2 heavy with D265A, D270A
light: B1 light
notes: structure 2 isotype control; CH2 DG2DCH2
B10: M2IC-GG2 (bispecific antibody, human IgG1, kappa)
chain: B2 chain with C496G
heavy: B2 heavy with C230G
light: B1 light
notes: structure 2 isotype control; CH2 GG2CH2
B11: M2IC-NA (bispecific antibody, human IgG1, kappa, N297A)
chain: B4 chain with F501L, E502L, N564A, S598P
heavy: B1 heavy with N298A
light: B1 light
notes: structure 2 isotype control; CH2 N297A
B12: M2IC-SG2 (bispecific antibody, human IgG1, kappa)
chain: B2 chain with C496S
heavy: B2 heavy with C230S
light: B1 light
notes: structure 2 isotype control; CH2 SG2CH2

These binders were tested against T1, Human BCMA (assay: flow cytometry, human tumor cells (table of the BCMA series)).
From the text: 1) Cell preparation: T cells isolated from CD3-positive human whole blood were used for a CD3 end affinity detection of multifunctional antibody molecule; positive tumor cells of corresponding antigen were used for detecting affinity of tumor antigen; for example, CD38-positive MM. 1S cells (purchased from the Cell Resource Center of Shanghai Institutes for Biological Sciences, Chinese Academy of Sciences) or RPMI 8226 cells (purchased from the Cell Resource Center of Shanghai Institutes for Biological Sciences, Chinese Academy of Sciences) were used for CD38 antigen detection, and PD-L1 positive H358 cells (purchased from the Cell Resource Center of Shanghai Institutes for Biological Sciences, Chinese Academy of Sciences) were used for PD-L1 antigen detection, and so on. The cells were resuspended with 1% FBS-PBS, adjusted to a density of 4×10⁶/ml, and 50 μl of cells were taken from each well, and then plated at 2×10⁵ per well. Cell plating was operated on ice
2) Addition of the antibody: according to the experimental design, the antibody was diluted gradually, and dilution of antibody was operated on ice. For example, the initial concentration of antibody for dilution was 3000 nM, and the antibody was diluted by 3 times with 11 concentration gradients. The diluted antibody was added to a cell well at 50 μl per well, mixed well, and shaked and incubated at 4° C. 1100 rpm/min for 2 h; after washing, the cells were resuspend in 1% FBS-PBS, and a diluted secondary antibody PE anti-human IgG FC (Biolegend, 409304) was added with a final concentration of 8 ug/ml and a volume of 50 μl/well. At the same time, a well only added with cells and secondary antibody was set as a control, the components were mixed well, and incubated under shaking at 1100 rpm/min at 4° C. for 1 h;
5) Data analysis: the data was analyzed by a flow analysis software FlowJo 7.6 thereby obtaining an average fluorescence intensity of the specific antibody concentration, plotted by a Graphpad Prism 5 with the antibody concentration (nM) as an abscissa and the average fluorescence intensity as an ordinate; the EC50 value was calculated by the method of One site—Specific binding, and the EC50 value indicated the cell affinity of the antibody to the corresponding target antigen.

Binder	binding result
B1	no binding
B2	no binding
B3	no binding
B4	no binding
B5	no binding
B6	no binding
B7	no binding
B8	no binding
B9	no binding
B10	no binding
B11	no binding
B12	no binding

The binders below were run against T2, Monkey CD3 (monkey) (assay: flow cytometry, monkey T cells).
T2 construct: whole, on cells; also called CD3 of monkey CD3 positive T cells

Binder	EC50 [nM]
B1	540
B2	488
B3	656
B4	506
B5	538
B6	570
B7	528
B8	607
B9	519
B10	538
B11	561
B12	525

The binders below were run against T3, Human CD3ε (human, UniProt P07766 23-126) (assay: flow cytometry, human T cells).
T3 construct: CD3 on T cells isolated from human whole blood
Outline: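 Cells expressing the target antigen (CD38+ MM.1S or RPMI 8226 for CD38; isolated T cells for CD3) were plated at 2×10⁵ per well in 1% FBS-PBS on ice. Antibody was titrated 3-fold over 11 points from 3000 nM and incubated 2 h at 4° C with shaking, followed by PE anti-human IgG Fc.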

Binder	EC50 [nM]
B1	499
B2	408
B3	467
B4	411
B5	367
B6	357
B7	515
B8	535
B9	452
B10	556
B11	547
B12	481
